Where “and” joins values, the source holds several entries; their conditions need not be identical. Equal entries are not always repeated. Where two headings read alike, the source gives them in different places. Ends that are not written are not given here. * marks the point of attachment. Biotin = O=C1N[C@H]2[C@H](CS[C@H]2CCCCC(=O)*)N1

Experiment [1] has as its target human EGFRvIII protein on the cell surface (human) (UniProt P00533). Description: FACS on U87MG-EGFRvIII cells.
Experiment [2] addresses human wild-type EGFR protein on the cell surface (human) (UniProt P00533). In words: FACS on normal human primary hepatocytes.
In experiment [3] the target is human EGFRvIII protein on the cell surface (human) (UniProt P00533). In words: FACS on CHOk1-EGFRvIII cells.
In experiment [4] the target is human EGFRvIII-hFc protein (human) (UniProt P00533). In words: ELISA, EGFRvIII-hFc coated. A general note: ELISA stands for enzyme-linked immunosorbent assay.
The next experiment deals with T1, pep15 (cysteine pairing not given here).
T1 peptide: SCVRACGADSYEMEEDK(Biotin)
Description: peptide dot matrix ELISA.

In a further experiment the target is T2, pep06 (cysteine pairing not given here).
T2 peptide: GNYVVTDHGSCVRACGK(Biotin)
In words: peptide dot matrix ELISA.

In another experiment the target is T3, pep19.
T3 sequence (peptide, C-terminal K(Biotin)): ACGADSYEMEEDGVRKK
In words: peptide dot matrix ELISA.

A further experiment concerns the target T4, pep20 (cysteine pairing not given here).
T4 peptide: CGADSYEMEEDGVRKCK(Biotin)
Description: peptide dot matrix ELISA.

A further experiment deals with T5, pep21.
T5 peptide: GADSYEMEEDGVRKCKK(Biotin)
Description: peptide dot matrix ELISA.

The target in another experiment is T6, pep07 (cysteine pairing not given here).
T6 peptide: NYVVTDHGSCVRACGAK(Biotin)
Description: peptide dot matrix ELISA.

The target in the next experiment is T7, pep05 (cysteine pairing not given here).
T7 peptide: KGNYVVTDHGSCVRACK(Biotin)
In words: peptide dot matrix ELISA.

For another experiment, the target named is T8, pep13 (cysteine pairing not given here).
T8 peptide: HGSCVRACGADSYEMEK(Biotin)
Description: peptide dot matrix ELISA.

For experiment [5], the target named is T9, pep04.
T9 sequence (peptide, C-terminal K(Biotin)): KKGNYVVTDHGSCVRAK
Description: peptide dot matrix ELISA.

The target of a further experiment is T10, pep14 (cysteine pairing not given here).
T10 peptide: GSCVRACGADSYEMEEK(Biotin)
In words: peptide dot matrix ELISA.

Experiment [6] deals with human EGFRvIII-hFc protein (human) (UniProt P00533). Description: ELISA, EGFRvIII-hFc coated. The source holds these as a separate data set.
Experiment [7] concerns the target human wild-type EGFR protein on the cell surface (human) (UniProt P00533). Description: FACS on A431 tumor cells.
Experiment [8] has the same target. In words: FACS on CHOk1-EGFR cells.
For experiment [9], the target named is T11, human EGFRvIII protein, full length, on transfected cells (human, UniProt P00533 25-1210).
T11 construct: whole, on cells; stably transfected CHO-K1, U87MG and HEK293(F) cells; also called hEGFRvIII; mutant EGFRvIII protein
In words: FACS on CHOK-EGFRvIII cells.

In experiment [10] the target is T12, human EGFRvIII-hFc protein (human, UniProt P00533 25-645).
T12 construct: extracellular domain; made in HEK293 cells, purified on protein A; also called immunogen A; hFc-tagged EGFRvIII protein; not shown: human IgG Fc fragment (hFc) of the pCpC vector
In words: ELISA, coated EGFRvIII-hFc. The method, then:
The plate is incubated for 2 hours at 37° C., and then washed 3 times with the plate washing solution [PBS+0.01% (v/v) Tween20]. The plate is added with an HRP (horseradish peroxidase) labeled secondary antibody (purchased from Sigma), incubated at 37° C. for 2 hours, and then washed 3 times with the plate washing solution [PBS+0.01% (v/v) Tween20]. The plate is added with 100 μl of TMB substrate/well, incubated for 30 minutes at room temperature, and then added with 100 μl of stopping solution (1.0N HCl)/well. A450 nm value is read using an ELISA plate reader (SpectraMax 384plus, purchased from Molecular Device), and the results are shown in FIG. 11 and table 19.

Experiment [11] deals with T13, human EGFR protein (wild-type), on cells (human, UniProt P00533 25-1210).
T13 construct: whole, on cells; transfected on CHO-K1 cells; endogenous on the human cell lines; the cell is named under assay; also called wild-type EGFR; hEGFR
In words: FACS on CHOK-EGFR cells.

For experiment [12], the target named is T11, human EGFRvIII protein, full length, on …. Description: FACS on U87MG-EGFRvIII cells, Alexa 488 secondary antibody, mean fluorescence intensity. The method, then:
The preparation of U87MG-EGFRvIII required for FACS detection is as described in the preparation of the immunogen B in example 1. Normal human primary hepatocytes are purchased from BioreclamationIVT, and A431 tumor cells are purchased from ATCC. […] The cells are washed twice with the HBSS buffer and are counted, and then the cells are diluted with the HBSS buffer to 2×10⁶ cells/ml, added with 1% goat serum blocking solution, with the percentage being the mass percentage, and incubated on ice for 30 minutes, and then centrifugally washed twice with the HBSS buffer. […] The plate is centrifugally washed twice with the FACS buffer, added with 100 μL/well of a 1:1000 diluted fluorescence (Alexa 488) labeled secondary antibody (purchased from Invitrogen), and incubated on ice for 1 hour. […] The cells are resuspended in 100 μL of the FACS buffer, and the results are detected and analyzed by FACS (FACS Calibur, purchased from BD). Data analysis is performed by using the software (CellQuest) to obtain the mean fluorescence intensity (MFI) of the cells. Data is further analyzed by using the software (GraphPad Prism5) to perform data fitting and calculate EC50.

Experiment [13] addresses T12, human EGFRvIII-hFc protein. In words: ELISA, plate coated with human EGFRvIII-hFc, HRP secondary antibody, absorbance at 450 nm. The method, then: The purified immunogen A (EGFRvIII-hFc) obtained in example 1 (for the preparation method, see step (I) in example 1) is diluted with PBS to a final concentration of 1.0 μg/mL, and then added to a 96-well ELISA plate at 100 μl/well. The plate is sealed with a plastic film and incubated at 4° C. overnight. The next day, the plate is washed twice with a plate washing solution [PBS+0.01% (v/v) Tween20], and added with a blocking solution [PBS+0.01% (v/v) Tween20+1% (w/w) BSA] for blocking 2 hours at room temperature. […] The plate is incubated for 2 hours at 37° C., and then washed 3 times with the plate washing solution [PBS+0.01% (v/v) Tween20]. The plate is added with an HRP (horseradish peroxidase) labeled secondary antibody (purchased from Sigma), incubated at 37° C. for 2 hours, and then washed 3 times with the plate washing solution [PBS+0.01% (v/v) Tween20]. The plate is added with 100 μl of TMB substrate/well, incubated for 30 minutes at room temperature, and then added with 100 μl of stopping solution (1.0N HCl)/well. A450 nm value is read using an ELISA plate reader (SpectraMax 384plus, purchased from Molecular Device), and the results are shown in FIG. 11 and table 19.

In the next experiment the target is T14, pep25 (cysteine pairing not given here).
T14 peptide: YEMEEDGVRKCKKCEGK(Biotin)
In words: peptide dot matrix ELISA.

For experiment [14], the target named is T15, pep04.
T15 peptide: KKGNYVVTDHGSCVRAK(Biotin)
In words: peptide dot matrix ELISA.

Another experiment deals with T16, pep10 (cysteine pairing not given here).
T16 peptide: VTDHGSCVRACGADSYK(Biotin)
In words: peptide dot matrix ELISA.

The target of a further experiment is T17, pep09 (cysteine pairing not given here).
T17 peptide: VVTDHGSCVRACGADSK(Biotin)
Description: peptide dot matrix ELISA.

The target of a further experiment is T18, pep33 (cysteine pairing not given here).
T18 peptide: RKCKKCEGPCRKVCNGK(Biotin)
Description: peptide dot matrix ELISA.

The target in another experiment is T19, pep28 (cysteine pairing not given here).
T19 peptide: EEDGVRKCKKCEGPCRK(Biotin)
Description: peptide dot matrix ELISA.

The target in a further experiment is T20, pep01.
T20 peptide: LEEKKGNYVVTDHGSCK(Biotin)
Description: peptide dot matrix ELISA.

In a further experiment the target is T21, pep08 (cysteine pairing not given here).
T21 peptide: YVVTDHGSCVRACGADK(Biotin)
In words: peptide dot matrix ELISA.

In another experiment the target is T22, pep17.
T22 peptide: VRACGADSYEMEEDGVK(Biotin)
Description: peptide dot matrix ELISA.

Another experiment addresses T23, pep35 (cysteine pairing not given here).
T23 peptide: CKKCEGPCRKVCNGIGK(Biotin)
In words: peptide dot matrix ELISA.

A further experiment concerns the target T24, pep18.
T24 peptide: RACGADSYEMEEDGVRK(Biotin)
In words: peptide dot matrix ELISA.

For the next experiment, the target named is T25, pep11 (cysteine pairing not given here).
T25 peptide: TDHGSCVRACGADSYEK(Biotin)
Description: peptide dot matrix ELISA.

In a further experiment the target is T26, pep16 (cysteine pairing not given here).
T26 peptide: CVRACGADSYEMEEDGK(Biotin)
Description: peptide dot matrix ELISA.

A further experiment has as its target T27, pep31 (cysteine pairing not given here).
T27 peptide: GVRKCKKCEGPCRKVCK(Biotin)
Description: peptide dot matrix ELISA.

In the next experiment the target is T28, pep26 (cysteine pairing not given here).
T28 peptide: EMEEDGVRKCKKCEGPK(Biotin)
Description: peptide dot matrix ELISA.

The target of the next experiment is T29, pep30 (cysteine pairing not given here).
T29 peptide: DGVRKCKKCEGPCRKVK(Biotin)
In words: peptide dot matrix ELISA.

A further experiment deals with T30, pep34 (cysteine pairing not given here).
T30 peptide: KCKKCEGPCRKVCNGIK(Biotin)
In words: peptide dot matrix ELISA.

For hIgG (antibody), the Maximum mean fluorescence intensity in [1] stood at 0 MFI; in experiment [3] it was 133 MFI; in experiment [8], 144 MFI. Further, the values for the MFI in experiment [2] and in experiment [7] were 219 MFI and 388 MFI, respectively. Besides, the values for the Maximum OD450 value in experiment [4] and in experiment [6] were 0.17 OD450 and 0.1 OD450, respectively. Moreover, the ELISA signal with pep15 was 0.05 and 0.06; with pep06, 0.07 and 0.05; with pep19, 0.05; with pep20 it was 0.12 and 0.1; with pep21, 0.06; with pep07, 0.05. Moreover, the ELISA signal in the experiment with pep05 was 0.05 and 0.06; with pep13 it was 0.06; with pep04 [5] it was 0.05 and 0.06; in the experiment with pep14, 0.07.

B1: c75G7C6-3 (antibody, human IgG1, V domains shown)
VH: EVQLQQSGPELVKPGASVKIPCKASGYTFTDYNMDWVKQSHGKSLEWIGDINPNNGDTIYNQKFKGKATLTVDKSSSTAYMELRSLTSEDTAVYYCARGDYEGYYPVYYAMDYWGQGTSVTVSS
VL: ENVLTQSPAIMSASPGEKVTMTCRASSSVSSSYLHWYQQKSGASPKLWIFSTSNLAAGVPARFSGSGSGTSYSLTVSSVEAEDAATYYCQQYSGYPLTFGAGTKLELK
notes: chimeric, human IgG1 / kappa; DG of heavy chain CDR3 mutated to EG; also called DG/EG mutant
As for B1, the “fold decrease in binding ability compared to the wild-type chimeric antibody c75G7C6” value turned out to be 2.5 fold in experiment [9], 22 fold in [10] and 3 fold in experiment [11].

B2: Chimeric antibody 63A10 (antibody, human IgG1, V domains shown)
VH: QVQLQQSGAELARPGASVKMSCKASGYTFISFTMHWVKQRPGQGLEWIGYINPNSGYTKYNQKFKDKATLTAGQSSSTAYMQLSSLTSEDSAVYYCTRGGGRGFAYWGQGTLVTVSA
VL: DILMTQSPSSMSVSLGDTVTITCHASQDINSNIGWLQQKPGKSFKALIYHGTNLEDGVPSRFSGSGSGADYSLTISSLESEDFADYYCVQYAQFPFTFGSGTKLEIK
notes: also called c63A10A7
Consider B2, for which the EC50 (read off the curve) – broadly, the concentration that produces a half-maximal response – is approximately 2 nM in experiment [12] and approximately 0.03 nM in experiment [13].

B3: Chimeric antibody 63A10 (antibody, V domains shown)
VH: B2 VH
VL: B2 VL
notes: also called c63A10A7
As for B3, the ELISA signal amounted to 0.06 with pep25; 0.06 with pep04 [14]; 0.05 with pep10; 0.05 with pep09; 0.07 with pep33; 0.06 with pep28. The ELISA signal with pep01 amounted to 0.05; in the experiment with pep08, 0.05; in the experiment with pep17, 0.05; in the experiment with pep35 it was 0.07; with pep18, 0.05; in the experiment with pep11 it was 0.05. The ELISA signal stood at 0.05 with pep16; 0.06 with pep31; 0.33 in the experiment with pep26; 0.06 with pep30; 0.07 with pep34.
